The chains are these.
B5: LILRA2 (receptor, UniProt Q8N149 24-483, looked up)
chain: GHLPKPTLWAEPGSVIIQGSPVTLRCQGSLQAEEYHLYRENKSASWVRRIQEPGKNGQFPIPSITWEHAGRYHCQYYSHNHSSEYSDPLELVVTGAYSKPTLSALPSPVVTSGGNVTLQCVSQVAFDGFILCKEGEDEHPQRLNSHSHARGWSWAIFSVGPVSPSRRWSYRCYAYDSNSPYVWSLPSDLLELLVPGVSKKPSLSVQPGPMVAPGESLTLQCVSDVGYDRFVLYKEGERDFLQRPGWQPQAGLSQANFTLGPVSPSHGGQYRCYSAHNLSSEWSAPSDPLDILITGQFYDRPSLSVQPVPTVAPGKNVTLLCQSRGQFHTFLLTKEGAGHPPLHLRSEHQAQQNQAEFRMGPVTSAHVGTYRCYSSLSSNPYLLSLPSDPLELVVSEAAETLSPSQNKTDSTTTSLGQHPQDYTVENLIRMGVAGLVLVVLGILLFEAQHSQRSLQDAAGR
notes: whole, on cells
B6: human Angptl-2 with FLAG tag at the C-terminus, mammalian-expressed (ligand, not shown: small tags and cut ends)
chain: QEDGFEGTEEGSPREFIYLNRYKRAGESQDKCTYTFIVPQQRVTGAICVNSKEPEVLLENRVHKQELELLNNELLKQKRQIETLQQLVEVDGGIVSEVKLLRKESRNMNSRVTQLYMQLLHEIIRKRDNALELSQLENRILNQTADMLQLASKYKDLEHKYQHLATLAHNQSEIIAQLEEHCQRVPSARPVPQPPPAAPPRVYQPPTYNRIINQISTNEIQSDQNLKVLPPPLPTMPTLTSLPSSTDKPSGPWRDCLQALEDGHDTSSIYLVKPENTNRLMQVWCDQRHDPGGWTVIQRRLDGSVNFFRNWETYKQGFGNIDGEYWLGLENIYWLTNQGNYKLLVTMEDWSGRKVFAEYASFRLEPESEYYKLRLGRYHGNAGDSFTWHNGKQFTTLDRDHDVYTGNCAHYQKGGWWYNACAHSNLNGVWYRGGHYRSRYQDGVYWAEFRGGSYSLKKVVMMIRPNPNTFH
notes: also called Angptl-2-FLAG; A2-Flag (mammalian)

In experiment [1] the target is T1, paired immunoglobulin-like receptor B (PirB) (mouse, UniProt P97484 25-841).
T1 construct: whole, on cells
T1 sequence (looked up): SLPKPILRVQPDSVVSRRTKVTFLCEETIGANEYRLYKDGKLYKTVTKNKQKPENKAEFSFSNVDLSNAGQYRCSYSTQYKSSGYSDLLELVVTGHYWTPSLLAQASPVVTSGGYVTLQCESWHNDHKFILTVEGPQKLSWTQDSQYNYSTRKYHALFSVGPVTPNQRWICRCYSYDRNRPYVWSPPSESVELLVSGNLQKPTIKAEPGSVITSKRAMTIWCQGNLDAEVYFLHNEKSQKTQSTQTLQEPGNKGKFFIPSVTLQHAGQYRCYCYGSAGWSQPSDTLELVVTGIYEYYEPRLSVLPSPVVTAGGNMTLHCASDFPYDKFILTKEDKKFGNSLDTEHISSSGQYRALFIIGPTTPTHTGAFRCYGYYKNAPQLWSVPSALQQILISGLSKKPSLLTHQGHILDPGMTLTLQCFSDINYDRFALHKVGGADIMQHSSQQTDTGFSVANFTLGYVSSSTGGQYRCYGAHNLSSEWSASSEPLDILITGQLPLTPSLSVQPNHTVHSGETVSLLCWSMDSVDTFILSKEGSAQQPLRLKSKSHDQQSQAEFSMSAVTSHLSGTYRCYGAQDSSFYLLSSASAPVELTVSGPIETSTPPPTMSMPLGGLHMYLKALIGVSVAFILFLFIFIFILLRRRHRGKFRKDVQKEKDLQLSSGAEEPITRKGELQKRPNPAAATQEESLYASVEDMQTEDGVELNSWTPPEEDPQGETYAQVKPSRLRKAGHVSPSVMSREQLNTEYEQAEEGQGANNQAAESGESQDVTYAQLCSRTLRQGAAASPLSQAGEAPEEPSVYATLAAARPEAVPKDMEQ
Description: flow cytometry, PirB-transfected 293T cells, GST-Angptl-5-FLAG according to the legend, Angptl binding against PirB staining; left gate of the same panel 46; Control panel 123 (left) and 183 (right). The procedure: (§1) Plasmids and proteins. […] Angptl-2-FLAG was purified using M2 resin. Purified GST-Angptl-5 was purchased from Abnova. Bacterially-expressed Flag-Angptl-2 and Angptl-2-Flag were constructed in pET-26b(+) vector, and GST-Angptls-FLAG in pGEX vector, and expressed and purified from bacteria. […] Anti-LILRB2-PE was used as indicated. The cells were analyzed using either a FACSCalibur or FACSAria instrument (Becton Dickinson).
In general terms: Flow cytometry measures light scatter and fluorescence of single cells or particles in a stream.

Experiment [2] concerns the target T1, paired immunoglobulin-like receptor B …. Description: flow cytometry on PirB-transfected 293T cells. On the procedure: as §1
The experiment “LILRA2” has as its target B5. The experiment is described as follows: flow cytometry on transfected 293T cells. The procedure:
as §1

Another experiment deals with T2, LILRB1 (human, UniProt Q8NHL6 24-650).
T2 construct: also called leukocyte immunoglobulin-like receptor B1
Description: flow cytometry on transfected 293T cells. The procedure: as §1

The target of the next experiment is T3, LILRB5 (human, UniProt O75023 24-590).
T3 construct: also called leukocyte immunoglobulin-like receptor B5
Description: flow cytometry on transfected 293T cells. On the procedure: as §1

The target of another experiment is T4, LILRA1 (UniProt O75019 17-489, limits assumed).
T4 construct: whole, on cells
The experiment is described as follows: flow cytometry on transfected 293T cells. On the procedure: as §1

A further experiment concerns the target T5, LILRB3 (human, UniProt O75022 24-631).
T5 construct: also called leukocyte immunoglobulin-like receptor B3
The experiment is described as follows: flow cytometry on transfected 293T cells. The procedure:
as §1

A further experiment addresses T6, LILRA4 (UniProt P59901 24-499, limits assumed).
T6 construct: whole, on cells
The experiment is described as follows: flow cytometry on transfected 293T cells. The procedure:
as §1

In experiment [3] the target is T7, human Angptl-7 with FLAG tag at the C-terminus (human, UniProt O43827 27-346).
T7 construct: not shown: FLAG tag at the C-terminus
T7 sequence: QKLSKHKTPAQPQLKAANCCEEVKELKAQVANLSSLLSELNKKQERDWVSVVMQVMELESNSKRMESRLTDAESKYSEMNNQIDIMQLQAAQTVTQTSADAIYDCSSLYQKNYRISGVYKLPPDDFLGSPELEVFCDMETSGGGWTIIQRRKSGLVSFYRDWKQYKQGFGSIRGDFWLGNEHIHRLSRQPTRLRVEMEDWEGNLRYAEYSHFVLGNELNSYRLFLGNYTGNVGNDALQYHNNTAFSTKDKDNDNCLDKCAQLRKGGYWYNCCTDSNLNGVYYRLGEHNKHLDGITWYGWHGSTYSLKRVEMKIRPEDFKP
The experiment is described as follows: flow cytometry, 293T cells transfected with mouse LAIR1, anti-FLAG-APC against anti-LAIR1-PE; left gate of the same panel 56; Control panel 14 (left) and 15 (right). On the procedure: as §1

The target of experiment [4] is B6. The experiment is described as follows: flow cytometry on transfected 293T cells. On the procedure: as §1
The next experiment deals with T8, human LILRB2 (human, UniProt Q8N423 22-597).
T8 construct: also called leukocyte immunoglobulin-like receptor B2
The experiment is described as follows: flow cytometry on human cord blood LILRB2+ cells. On the procedure: as §1

T6 sequence (P59901 24-499 limits assumed): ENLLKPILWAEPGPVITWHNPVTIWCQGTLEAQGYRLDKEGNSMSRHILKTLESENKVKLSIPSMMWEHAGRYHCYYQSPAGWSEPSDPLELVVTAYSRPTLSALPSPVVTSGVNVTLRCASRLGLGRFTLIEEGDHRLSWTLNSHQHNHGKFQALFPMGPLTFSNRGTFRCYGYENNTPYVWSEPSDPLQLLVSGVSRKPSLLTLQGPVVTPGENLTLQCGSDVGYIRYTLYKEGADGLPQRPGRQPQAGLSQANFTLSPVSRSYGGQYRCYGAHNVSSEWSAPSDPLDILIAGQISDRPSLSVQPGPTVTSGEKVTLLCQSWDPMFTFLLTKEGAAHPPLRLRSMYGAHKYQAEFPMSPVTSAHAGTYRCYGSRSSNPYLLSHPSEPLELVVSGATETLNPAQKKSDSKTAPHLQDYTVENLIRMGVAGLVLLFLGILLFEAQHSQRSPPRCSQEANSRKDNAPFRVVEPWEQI
T2 sequence (Q8NHL6 other isoform, or with tags, fused parts or gaps limits assumed): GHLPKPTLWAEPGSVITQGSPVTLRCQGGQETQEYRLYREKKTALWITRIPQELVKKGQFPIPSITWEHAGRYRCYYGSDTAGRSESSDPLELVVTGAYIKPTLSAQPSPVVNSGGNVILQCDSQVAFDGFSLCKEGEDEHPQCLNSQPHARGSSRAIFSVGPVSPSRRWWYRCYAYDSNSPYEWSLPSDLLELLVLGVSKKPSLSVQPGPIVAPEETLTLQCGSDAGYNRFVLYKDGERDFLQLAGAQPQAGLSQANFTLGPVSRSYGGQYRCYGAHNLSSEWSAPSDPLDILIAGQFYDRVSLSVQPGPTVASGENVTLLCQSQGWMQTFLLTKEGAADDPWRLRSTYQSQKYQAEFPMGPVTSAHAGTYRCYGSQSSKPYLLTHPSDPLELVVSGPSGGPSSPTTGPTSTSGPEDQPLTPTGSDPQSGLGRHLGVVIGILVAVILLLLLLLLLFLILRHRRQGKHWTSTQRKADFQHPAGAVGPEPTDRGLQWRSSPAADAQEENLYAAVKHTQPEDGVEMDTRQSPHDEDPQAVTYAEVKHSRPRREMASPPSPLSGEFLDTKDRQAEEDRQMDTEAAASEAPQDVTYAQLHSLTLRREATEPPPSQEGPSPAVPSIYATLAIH
T4 sequence (O75019 17-489 limits assumed): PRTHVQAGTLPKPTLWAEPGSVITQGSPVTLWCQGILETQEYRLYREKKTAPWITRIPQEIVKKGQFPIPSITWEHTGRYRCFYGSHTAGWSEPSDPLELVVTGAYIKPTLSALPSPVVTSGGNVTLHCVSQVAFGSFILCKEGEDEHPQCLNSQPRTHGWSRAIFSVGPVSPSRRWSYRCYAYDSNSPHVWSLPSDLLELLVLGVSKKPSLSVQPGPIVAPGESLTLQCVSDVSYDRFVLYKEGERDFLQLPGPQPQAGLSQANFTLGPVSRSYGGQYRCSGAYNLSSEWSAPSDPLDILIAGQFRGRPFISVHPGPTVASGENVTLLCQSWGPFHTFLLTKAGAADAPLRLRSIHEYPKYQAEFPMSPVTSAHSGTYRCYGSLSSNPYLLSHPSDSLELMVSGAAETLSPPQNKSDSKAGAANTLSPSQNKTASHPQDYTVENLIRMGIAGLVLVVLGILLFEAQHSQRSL
T5 sequence (O75022 other isoform, or with tags, fused parts or gaps limits assumed): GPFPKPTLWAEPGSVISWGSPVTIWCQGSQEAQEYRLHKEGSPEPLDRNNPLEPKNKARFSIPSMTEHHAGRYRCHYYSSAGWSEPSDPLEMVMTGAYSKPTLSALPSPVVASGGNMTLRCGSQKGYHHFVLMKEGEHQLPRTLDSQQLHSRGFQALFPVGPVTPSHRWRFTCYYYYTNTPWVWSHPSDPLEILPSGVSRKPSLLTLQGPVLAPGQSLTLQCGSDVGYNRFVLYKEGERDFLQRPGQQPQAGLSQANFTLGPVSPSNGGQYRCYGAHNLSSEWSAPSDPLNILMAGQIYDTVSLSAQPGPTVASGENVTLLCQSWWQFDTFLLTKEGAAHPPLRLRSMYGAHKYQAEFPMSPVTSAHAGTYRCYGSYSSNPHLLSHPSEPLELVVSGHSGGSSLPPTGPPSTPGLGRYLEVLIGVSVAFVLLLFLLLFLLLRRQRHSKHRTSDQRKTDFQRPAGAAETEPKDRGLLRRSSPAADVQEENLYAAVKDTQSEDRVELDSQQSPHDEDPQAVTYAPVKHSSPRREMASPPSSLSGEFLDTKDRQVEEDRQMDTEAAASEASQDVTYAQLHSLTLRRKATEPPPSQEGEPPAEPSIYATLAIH
T3 sequence (O75023 other isoform, or with tags, fused parts or gaps limits assumed): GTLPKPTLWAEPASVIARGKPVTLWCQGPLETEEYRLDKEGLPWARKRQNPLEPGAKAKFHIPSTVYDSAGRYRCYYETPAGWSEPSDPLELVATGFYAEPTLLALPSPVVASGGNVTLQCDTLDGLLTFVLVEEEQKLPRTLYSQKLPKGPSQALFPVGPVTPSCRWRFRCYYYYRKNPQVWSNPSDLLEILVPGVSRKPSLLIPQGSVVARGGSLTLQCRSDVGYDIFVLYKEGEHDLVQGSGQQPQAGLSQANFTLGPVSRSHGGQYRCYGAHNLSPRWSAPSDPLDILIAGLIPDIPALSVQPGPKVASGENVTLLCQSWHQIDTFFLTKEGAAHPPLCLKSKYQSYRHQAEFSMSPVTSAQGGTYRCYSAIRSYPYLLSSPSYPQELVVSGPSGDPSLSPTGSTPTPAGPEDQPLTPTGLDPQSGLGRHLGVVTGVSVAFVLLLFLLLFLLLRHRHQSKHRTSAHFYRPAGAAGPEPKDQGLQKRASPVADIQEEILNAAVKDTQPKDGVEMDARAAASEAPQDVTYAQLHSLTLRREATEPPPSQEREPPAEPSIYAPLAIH
T8 sequence (Q8N423 22-597 D161E/M235V limits assumed): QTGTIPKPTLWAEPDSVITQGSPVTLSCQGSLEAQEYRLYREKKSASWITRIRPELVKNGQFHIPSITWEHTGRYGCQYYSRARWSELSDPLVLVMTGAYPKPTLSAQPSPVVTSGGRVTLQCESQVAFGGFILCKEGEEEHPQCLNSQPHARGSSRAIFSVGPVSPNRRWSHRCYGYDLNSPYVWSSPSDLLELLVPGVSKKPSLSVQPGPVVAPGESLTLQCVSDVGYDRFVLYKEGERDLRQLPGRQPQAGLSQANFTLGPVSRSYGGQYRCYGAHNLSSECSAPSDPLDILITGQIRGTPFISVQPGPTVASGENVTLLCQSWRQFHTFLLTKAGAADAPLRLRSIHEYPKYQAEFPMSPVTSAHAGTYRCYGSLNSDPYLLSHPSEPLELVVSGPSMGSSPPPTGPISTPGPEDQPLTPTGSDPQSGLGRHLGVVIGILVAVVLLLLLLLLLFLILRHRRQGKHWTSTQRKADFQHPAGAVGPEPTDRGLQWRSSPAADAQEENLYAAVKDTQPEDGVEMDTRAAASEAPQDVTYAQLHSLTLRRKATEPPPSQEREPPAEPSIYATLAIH

B1: GST-Angptl-5-FLAG, in house, bacterially expressed (ligand)
chain: NCVHHSTDSSVVNIVEDGSNAKDESKSNDTVCKEDCEESCDVKTKITREEKHFMCRNLQNSIVSYTRSTKKLLRNMMDEQQASLDYLSNQVNELMNRVLLLTTEVFRKQLDPFPHRPVQSHGLDCTDIKDTIGSVTKTPSGLYIIHPEGSSYPFEVMCDMDYRGGGWTVIQKRIDGIIDFQRLWCDYLDGFGDLLGEFWLGLKKIFYIVNQKNTSFMLYVALESEDDTLAYASYDNFWLEDETRFFKMHLGRYSGNAGDAFRGLKKEDNQNAMPFSTSDVDNDGCRPACLVNGQSVKSCSHLHNKTGWWFNECGLANLNGIHHFSGKLLATGIQWGTWTKNNSPVKIKSVSMKIRRMYNPYFK
notes: also called GST-A5 (in house, bacterial); GST-A5-FLAG; not shown: glutathione S-transferase (GST) tag at the N-terminus (pGEX vector); FLAG tag at the C-terminus
In the case of B1, the binding result in [1] is on record as “binds”.

B2: GST-Angptl-5 (purified, purchased from Abnova) (ligand)
chain: NCVHHSTDSSVVNIVEDGSNAKDESKSNDTVCKEDCEESCDVKTKITREEKHFMCRNLQNSIVSYTRSTKKLLRNMMDEQQASLDYLSNQVNELMNRVLLLTTEVFRKQLDPFPHRPVQSHGLDCTDIKDTIGSVTKTPSGLYIIHPEGSSYPFEVMCDMDYRGGGWTVIQKRIDGIIDFQRLWCDYLDGFGDLLGEFWLGLKKIFYIVNQKNTSFMLYVALESEDDTLAYASYDNFWLEDETRFFKMHLGRYSGNAGDAFRGLKKEDNQNAMPFSTSDVDNDGCRPACLVNGQSVKSCSHLHNKTGWWFNECGLANLNGIHHFSGKLLATGIQWGTWTKNNSPVKIKSVSMKIRRMYNPYFK
notes: Bought fusion protein; Used radio-iodinated in the liquid-phase assay; also called GST-A5 (Abnova); ^125I-GST-Angptl-5; not shown: glutathione S-transferase (GST) tag at the N-terminus
In the case of B2, the binding result is on record as “binds” in [2]; “no binding” with LILRA2; “no binding” with LILRB1; “binds” in the experiment with LILRB5; “no binding” in the experiment with LILRA1; “binds” in the experiment with LILRB3. Further, the binding result in the experiment with LILRA4 is “no binding”.

B3: human Angptl-3 with FLAG tag at the C-terminus (ligand)
chain: DQDNSSFDSLSPEPKSRFAMLDDVKILANGLLQLGHGLKDFVHKTKGQINDIFQKLNIFDQSFYDLSLQTSEIKEEEKELRRTTYKLQVKNEEVKNMSLELNSKLESLLEEKILLQQKVKYLEEQLTNLIQNQPETPEHPEVTSLKTFVEKQDNSIKDLLQTVEDQYKQLNQQHSQIKEIENQLRRTSIQEPTEISLSSKPRAPRTTPFLQLNEIRNVKHDGIPAECTTIYNRGEHTSGMYAIRPSNSQVFHVYCDVISGSPWTLIQHRIDGSQNFNETWENYKYGFGRLDGEFWLGLEKIYSIVKQSNYVLRIELEDWKDNKHYIEYSFYLGNHETNYTLHLVAITGNVPNAIPENKDLVFSTWDHKAKGHFNCPEGYSGGWWWHDECGENNLNGKYNKPRAKSKPERRRGLSWKSQNGRLYSIKSTKMLIHPTDSESFE
notes: not shown: FLAG tag at the C-terminus
In the case of B3, in experiment [2], the binding result was “binds”.

B4: mouse LAIR1 (receptor, UniProt Q8BG84 22-263, looked up)
chain: QEGSLPDITIFPNSSLMISQGTFVTVVCSYSDKHDLYNMVRLEKDGSTFMEKSTEPYKTEDEFEIGPVNETITGHYSCIYSKGITWSERSKTLELKVIKENVIQTPAPGPTSDTSWLKTYSIYIFTVVSVIFLLCLSALLFCFLRHRQKKQGLPNNKRQQQRPEERLNLATNGLEMTPDIVADDRLPEDRWTETWTPVAGDLQEVTYIQLDHHSLTQRAVGAVTSQSTDMAESSTYAAIIRH
notes: whole, on cells
Regarding B4, the binding result in experiment [3] is given as “binds”.

On to B5, for which the binding result in [4] is on record as “no binding”.

With B6, the binding result with LILRB1, with LILRA1 and in the experiment with LILRA4 was “no binding” throughout.

B7: GST-Angptl-3 (ligand)
chain: SRIDQDNSSFDSLSPEPKSRFAMLDDVKILANGLLQLGHGLKDFVHKTKGQINDIFQKLNIFDQSFYDLSLQTSEIKEEEKELRRTTYKLQVKNEEVKNMSLELNSKLESLLEEKILLQQKVKYLEEQLTNLIQNQPETPEHPEVTSLKTFVEKQDNSIKDLLQTVEDQYKQLNQQHSQIKEIENQLRRTSIQEPTEISLSSKPRAPRTTPFLQLNEIRNVKHDGIPAECTTIYNRGEHTSGMYAIRPSNSQVFHVYCDVISGSPWTLIQHRIDGSQNFNETWENYKYGFGRLDGEFWLGLEKIYSIVKQSNYVLRIELEDWKDNKHYIEYSFYLGNHETNYTLHLVAITGNVPNAIPENKDLVFSTWDHKAKGHFNCPEGYSGGWWWHDECGENNLNGKYNKPRAKSKPERRRGLSWKSQNGRLYSIKSTKMLIHPTDSESFE
notes: also called GST-Angptls-FLAG (Angptl-3); not shown: glutathione S-transferase (GST) tag (pGEX vector); FLAG tag (GST-Angptls-FLAG)
On to B7, for which the binding result with human LILRB2 is given as “binds”.

These data come from patent US20150174203A1 (ICAHN SCHOOL OF MEDICINE AT MOUNT SINAI, published 2015).
